Bridges are numbered along the chain shown (N, C = ends).
Molecular target: T1, purified human fibrinogen (Homo sapiens, UniProt P02671+P02675+P02679)
T1 construct: purchased Calbiochem 341576
T1 sequence (P02671 20-629 limits assumed): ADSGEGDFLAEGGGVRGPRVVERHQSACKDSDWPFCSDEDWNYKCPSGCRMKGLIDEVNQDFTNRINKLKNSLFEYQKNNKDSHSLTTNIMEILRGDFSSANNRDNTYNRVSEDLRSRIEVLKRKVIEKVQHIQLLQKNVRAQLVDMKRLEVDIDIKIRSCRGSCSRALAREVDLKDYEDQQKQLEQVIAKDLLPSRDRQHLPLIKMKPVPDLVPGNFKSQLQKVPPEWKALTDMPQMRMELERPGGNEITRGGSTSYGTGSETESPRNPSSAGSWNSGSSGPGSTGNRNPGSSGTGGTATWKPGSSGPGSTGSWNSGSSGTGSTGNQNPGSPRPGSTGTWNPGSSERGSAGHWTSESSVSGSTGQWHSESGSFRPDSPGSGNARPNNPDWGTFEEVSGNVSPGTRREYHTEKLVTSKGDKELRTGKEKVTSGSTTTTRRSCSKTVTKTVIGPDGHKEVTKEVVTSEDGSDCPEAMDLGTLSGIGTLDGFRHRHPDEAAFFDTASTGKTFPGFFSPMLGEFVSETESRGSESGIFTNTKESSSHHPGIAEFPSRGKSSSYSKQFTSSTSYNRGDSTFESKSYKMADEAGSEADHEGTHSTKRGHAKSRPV
T1 sequence (P02675 31-491): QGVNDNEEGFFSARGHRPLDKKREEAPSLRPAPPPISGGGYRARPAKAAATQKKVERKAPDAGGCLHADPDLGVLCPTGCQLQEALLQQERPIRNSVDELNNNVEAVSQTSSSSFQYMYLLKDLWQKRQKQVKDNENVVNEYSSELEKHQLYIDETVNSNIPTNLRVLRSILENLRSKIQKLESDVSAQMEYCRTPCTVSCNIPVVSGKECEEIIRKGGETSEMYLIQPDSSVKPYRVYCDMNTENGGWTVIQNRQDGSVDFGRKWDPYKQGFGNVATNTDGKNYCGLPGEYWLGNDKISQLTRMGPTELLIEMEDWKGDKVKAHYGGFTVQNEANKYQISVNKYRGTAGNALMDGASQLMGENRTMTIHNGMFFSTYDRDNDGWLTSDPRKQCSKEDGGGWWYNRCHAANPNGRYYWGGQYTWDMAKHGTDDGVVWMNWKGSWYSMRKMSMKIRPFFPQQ
T1 sequence (P02679 27-433 limits assumed): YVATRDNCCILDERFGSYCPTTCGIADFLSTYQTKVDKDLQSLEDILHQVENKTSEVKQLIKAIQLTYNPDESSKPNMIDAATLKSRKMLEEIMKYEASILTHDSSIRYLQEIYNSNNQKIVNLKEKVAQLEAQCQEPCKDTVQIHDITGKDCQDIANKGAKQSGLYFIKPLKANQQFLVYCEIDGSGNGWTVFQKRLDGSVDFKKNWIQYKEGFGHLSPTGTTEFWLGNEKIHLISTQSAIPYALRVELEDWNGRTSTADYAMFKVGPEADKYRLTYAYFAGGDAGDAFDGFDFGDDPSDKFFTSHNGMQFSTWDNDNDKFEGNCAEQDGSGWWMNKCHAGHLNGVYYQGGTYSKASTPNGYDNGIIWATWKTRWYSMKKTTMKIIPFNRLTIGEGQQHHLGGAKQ
Assay: Purified fibrinogen binding capacity of fibrinogen binding columns
Conditions: purified fibrinogen 0.5 mg/ml in PBS injected continuously, eluted with glycine 0.1M pH 2.5
Procedure: FIG. 1 is a chromatogram illustrating the purified fibrinogen binding capacity of a fibrinogen binding column utilizing the fibrinogen binding peptide of SEQ ID NO:48 and having a ligand density of 2.0 μM/ml resin. Purified fibrinogen (0.5 mg/ml in PBS) was injected continuously onto the column until the A280 reading reached a plateau. The column was then washed with PBS until a baseline reading was obtained and then eluted with glycine buffer (0.1M, pH 2.5). The eluted fraction (major peak) was collected and analyzed by HPLC Size Exclusion Chromatography (SEC). The capacity of the column was calculated to be 2.076 mg fibrinogen/ml resin.
FIG. 2 is a chromatogram illustrating the purified fibrinogen binding capacity of a fibrinogen binding column utilizing the fibrinogen binding peptide of SEQ ID NO:48 and having a ligand density of 4.0 μM/ml resin. Purified fibrinogen (0.5 mg/ml in PBS) was injected continuously onto the column until the A280 reading reached a plateau. The column was then washed with PBS until a baseline reading was obtained and then eluted with glycine buffer (0.1M, pH 2.5). The eluted fraction (major peak) was collected and analyzed by HPLC Size Exclusion Chromatography (SEC). The capacity of the column was calculated to be 4.1 mg fibrinogen/ml resin. […]

For “SEQ ID NO:48: fibrinogen binding polypeptide containing the cyclic core peptide of SEQ ID NO: 43 (Ac-AEGTGSLYLCNSYPMHPYCNPGK-NH2; disulfide 10-19 (inferred))”, the “fibrinogen binding capacity of the column” value (ligand density 2.0 μM/ml resin) was 2.076 mg fibrinogen/ml resin and the “fibrinogen binding capacity of the column” value (ligand density 4.0 μM/ml resin) was 4.1 mg fibrinogen/ml resin.

From patent publication US7041790B2, “Fibrinogen binding moieties” (Dyax Corp., priority 2002, dated 2006)
